# Measured values published in patent publication US20260049134A1 (UNIVERSITY OF FLORIDA RESEARCH FOUNDATION, published 2026).
# Numbering of substitutions follows the chain as printed. In names and notes the source's numbering stands.
# B1: HW-25 chimeric rabbit-human IgG1 LA/LA/PG (antibody, V domains shown)
# VH: QSLEESGGRLVTPGTPLTLTCTVSGFSLSSYAMGWVRQAPGKGLEWIGIIDSRGSTYYATWAKGRFTISKTSTTVDLKITSPTTEDTATYFCAREDSYYYDSFNLWGPGTLVTVSS
# VL: SFVLTQPASVQVNLGQTVSLTCTADTLSRRYASWYQQKPGQAPVLLIYRDTSRPSGVPDRFSGSSSGNTATLTISGAQAGDEADYYCATSDGSGSSYQCVFGGGTQLTVTG
# notes: Fc-silenced (L234A/L235A/P329G) IgG1, lambda; Alexa Fluor 647-labeled in single-step flow cytometry; Cluster C-1
# B2: HW-1 chimeric rabbit-human IgG1 LA/LA/PG (antibody, V domains shown)
# VH: QSLEESGGGLFKPTDTLTLTCTASGFSLGSSYAISWVRQAPGKELEWIGTIDSGRAYYARWAKSRSTITRNTNENTVTLKMTSLTAADTATYFCARDLIPTYSQDIWGPGTLVTISS
# VL: B1 VL with S95N, C99Y, G111S
# notes: Fc-silenced (L234A/L235A/P329G) IgG1, lambda; Alexa Fluor 647-labeled in single-step flow cytometry; Prototype of cluster C-1
# B3: HW-17 chimeric rabbit-human IgG1 LA/LA/PG (antibody, V domains shown)
# VH: QSLGESRGRLVTPDETLTLTCTVSGIDLSSNAMSWVRQAPGEGLEWIGTINTGGRAYYASWAKGRFTISRTSTTVDLKMTSLTTEDTATYFCARERYSDGRAYDIWGPGTLVTISS
# VL: B1 VL with R49T, T51S, S52N, V57I, S90D, S96I, C99Y
# notes: as for B1
# Target: T1, IL13RA1
# T1 construct: coated protein in the ELISA; also called IL13RA1-Fc-His (R&D Systems)
# T1 chain: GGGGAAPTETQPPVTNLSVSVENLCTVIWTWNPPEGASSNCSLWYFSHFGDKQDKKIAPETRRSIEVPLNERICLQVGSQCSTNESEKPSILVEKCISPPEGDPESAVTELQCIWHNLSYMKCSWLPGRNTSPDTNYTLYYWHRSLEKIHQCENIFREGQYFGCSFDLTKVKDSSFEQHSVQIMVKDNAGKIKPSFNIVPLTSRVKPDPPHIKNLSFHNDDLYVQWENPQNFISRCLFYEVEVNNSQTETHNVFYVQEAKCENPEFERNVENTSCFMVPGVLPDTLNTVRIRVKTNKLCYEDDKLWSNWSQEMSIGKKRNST
# Experiment: ELISA on coated IL13RA1-Fc-His
# Experimental: (§1) Recombinant purified ECDs (50-150 ng) of each putative target protein were coated, incubated with 150 ng of the indicated primary antibody, and binding was detected using a peroxidase-conjugated anti-human Fab secondary antibody. Heatmap represents averages of technical triplicates. (8B) Target validation via siRNA knockdown. H929 cells were transfected with siRNA pools targeting the putative antibody targets ICAM1, CADM1, and PTPRG. Cells were then subjected to cognate IgG binding analysis via flow cytometry. (NT, non-targeting siRNA).
# (§2) ELISA ELISA was conducted as described previously. Briefly, 50-150 ng of antigen was coated overnight in half-area 96-well plates at 4° C., blocked with 3% BSA at 37° C. for 1 h, and 150 ng of chimeric rabbit/human IgG1 was added, incubating for 2 h at 37° C. […] After incubating at 37° C. for 15 min-1 h (depending on intensity of controls), data were acquired using a SpectraMax M5 plate reader (Molecular Devices).
row,Binder,binding result
1,B1,no binding (tested: 150 ng IgG1 per well)
2,B2,no binding (tested: 150 ng IgG1 per well)
3,B3,no binding (tested: 150 ng IgG1 per well)

# Target: T2, SLAMF7
# T2 construct: coated protein in the ELISA; also called SLAMF7-StrepTag
# T2 chain: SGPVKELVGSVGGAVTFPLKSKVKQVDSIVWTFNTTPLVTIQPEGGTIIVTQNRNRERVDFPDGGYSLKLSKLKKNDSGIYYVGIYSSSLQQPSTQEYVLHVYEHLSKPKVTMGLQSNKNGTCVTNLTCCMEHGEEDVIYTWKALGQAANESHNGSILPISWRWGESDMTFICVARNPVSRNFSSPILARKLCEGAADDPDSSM
# Experiment: ELISA on coated SLAMF7-StrepTag
# Experimental: as §1, §2
row,Binder,binding result
1,B1,no binding (tested: 150 ng IgG1 per well)
2,B2,no binding (tested: 150 ng IgG1 per well)
3,B3,no binding (tested: 150 ng IgG1 per well)

# Target: T3, DCC
# T3 construct: coated protein in the ELISA; also called DCC-His (R&D Systems)
# T3 chain: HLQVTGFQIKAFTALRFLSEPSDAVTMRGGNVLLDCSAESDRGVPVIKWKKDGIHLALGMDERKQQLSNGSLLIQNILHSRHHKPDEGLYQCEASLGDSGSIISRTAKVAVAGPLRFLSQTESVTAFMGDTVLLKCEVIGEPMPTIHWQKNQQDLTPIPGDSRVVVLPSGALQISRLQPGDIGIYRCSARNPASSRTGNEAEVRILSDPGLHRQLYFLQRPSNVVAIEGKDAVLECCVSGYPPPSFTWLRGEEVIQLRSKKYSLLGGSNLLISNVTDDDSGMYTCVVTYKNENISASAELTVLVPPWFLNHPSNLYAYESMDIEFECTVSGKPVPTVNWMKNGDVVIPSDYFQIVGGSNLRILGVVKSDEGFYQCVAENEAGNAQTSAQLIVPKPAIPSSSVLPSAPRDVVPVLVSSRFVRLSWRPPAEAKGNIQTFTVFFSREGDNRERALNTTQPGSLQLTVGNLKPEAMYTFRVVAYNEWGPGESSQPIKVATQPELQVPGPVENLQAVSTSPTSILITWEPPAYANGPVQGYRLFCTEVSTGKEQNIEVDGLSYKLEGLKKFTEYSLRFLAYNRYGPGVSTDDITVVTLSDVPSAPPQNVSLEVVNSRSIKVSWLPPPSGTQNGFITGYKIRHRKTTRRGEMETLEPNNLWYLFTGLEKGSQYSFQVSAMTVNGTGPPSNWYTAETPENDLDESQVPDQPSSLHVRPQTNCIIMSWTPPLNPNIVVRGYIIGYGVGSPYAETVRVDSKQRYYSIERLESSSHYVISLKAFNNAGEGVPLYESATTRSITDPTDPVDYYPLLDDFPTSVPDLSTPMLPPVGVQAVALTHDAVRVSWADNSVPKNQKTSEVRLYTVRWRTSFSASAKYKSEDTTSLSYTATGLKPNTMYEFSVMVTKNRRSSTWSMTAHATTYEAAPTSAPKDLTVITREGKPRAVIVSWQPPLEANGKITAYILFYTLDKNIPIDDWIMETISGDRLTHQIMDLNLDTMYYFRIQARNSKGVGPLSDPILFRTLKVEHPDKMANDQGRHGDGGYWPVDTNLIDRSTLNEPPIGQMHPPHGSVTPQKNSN
# Experiment: ELISA on coated DCC-His, 150 ng IgG1; None 0.095
# Experimental: as §1, §2
row,Binder,ELISA Absorbance (405 nm-570 nm)
1,B1,0.063
2,B2,0.068
3,B3,0.077

# Target: T4, PTPRG, endogenous in H929 multiple myeloma cells (human, UniProt P23470 20-1445)
# T4 construct: Native protein on H929 cells (flow cytometry, siRNA knockdown) and in H929 lysates (IP/MS); also called phosphatase receptor type γ
# T4 sequence (P23470 20-1445 limits assumed): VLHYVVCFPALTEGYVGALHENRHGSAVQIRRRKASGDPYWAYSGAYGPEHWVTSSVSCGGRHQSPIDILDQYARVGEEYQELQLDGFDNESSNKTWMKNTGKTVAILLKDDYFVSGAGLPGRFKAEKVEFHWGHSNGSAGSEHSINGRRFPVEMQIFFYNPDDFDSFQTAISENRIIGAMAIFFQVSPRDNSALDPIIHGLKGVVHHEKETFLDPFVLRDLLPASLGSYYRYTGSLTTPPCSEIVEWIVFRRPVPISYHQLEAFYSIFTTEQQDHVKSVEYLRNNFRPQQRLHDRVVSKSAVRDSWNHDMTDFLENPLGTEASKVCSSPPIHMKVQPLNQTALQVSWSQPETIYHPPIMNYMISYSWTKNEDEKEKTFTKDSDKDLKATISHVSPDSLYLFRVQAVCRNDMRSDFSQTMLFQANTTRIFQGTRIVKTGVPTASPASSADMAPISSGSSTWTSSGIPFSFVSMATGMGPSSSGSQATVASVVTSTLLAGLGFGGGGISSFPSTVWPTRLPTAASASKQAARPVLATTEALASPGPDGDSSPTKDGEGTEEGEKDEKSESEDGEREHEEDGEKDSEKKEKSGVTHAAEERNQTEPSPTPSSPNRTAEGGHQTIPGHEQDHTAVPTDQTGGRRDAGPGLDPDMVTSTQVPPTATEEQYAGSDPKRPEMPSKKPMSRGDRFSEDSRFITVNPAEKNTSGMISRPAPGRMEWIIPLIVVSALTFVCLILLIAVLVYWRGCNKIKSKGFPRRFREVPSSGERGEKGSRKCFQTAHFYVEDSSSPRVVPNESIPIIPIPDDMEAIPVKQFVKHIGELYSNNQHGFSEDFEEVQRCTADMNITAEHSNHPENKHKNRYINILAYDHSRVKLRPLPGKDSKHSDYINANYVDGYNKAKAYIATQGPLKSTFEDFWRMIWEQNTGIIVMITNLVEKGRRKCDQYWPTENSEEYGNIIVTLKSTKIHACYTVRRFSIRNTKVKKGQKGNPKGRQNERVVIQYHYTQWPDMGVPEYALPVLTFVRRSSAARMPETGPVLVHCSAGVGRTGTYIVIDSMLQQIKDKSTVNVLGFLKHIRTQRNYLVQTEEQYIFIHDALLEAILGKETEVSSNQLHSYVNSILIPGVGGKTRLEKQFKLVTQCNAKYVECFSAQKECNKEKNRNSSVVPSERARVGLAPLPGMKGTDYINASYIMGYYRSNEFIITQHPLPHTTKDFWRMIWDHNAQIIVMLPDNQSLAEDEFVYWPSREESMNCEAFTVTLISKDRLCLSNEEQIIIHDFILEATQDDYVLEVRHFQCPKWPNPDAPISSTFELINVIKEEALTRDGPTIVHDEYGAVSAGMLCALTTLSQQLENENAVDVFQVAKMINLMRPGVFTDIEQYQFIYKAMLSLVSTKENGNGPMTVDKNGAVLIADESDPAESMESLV
# Experiment: flow cytometry, H929 + NT Green siRNA; None 416
row,Binder,mAb binding (MFI)
1,B1,7680
2,B2,16000
3,B3,18600
